From patent US7193055B2, “Compaction assay for assessment of respiratory disease therapy” (Genentech, Inc., priority 1992, dated 2007)
Entries after “also recorded” stand apart in the source; their conditions may differ.

How the values were obtained:
[1] = tested on: purulent CF sputum; assay: Dynamic cone and plate rheometry of sputum; set-up: species or system human; settings: representative sputum sample, over the range of strain tested, FIG. 4
Description: Sputum rheological measurements were made at ambient temperature using the Rheometrics Fluid Rheometer (RFR-7800, Rheometrics Inc. Piscataway, N.J.) with a 0.02 radian, 25 mm radius cone and plate tool. Approximately 0.8 ml sputum was placed on the plate with 25 μL of diluent or rhDNase layered onto the top of the sputum. The cone was lowered onto the sample while the bottom plate was slowly rotated at. 5 rpm to evenly distribute the sample across the gap between the cone and plate. Drying at the sample edge was prevented by pipeting 0.1 poise silicon oil (Dow Chemical) onto the exposed edge of the cone. Rotation of the plate was stopped for five minutes to allow the sample to relax. Each preparation was tested at a deformation rate of 10 radians/sec and the percent strain was varied from 10% to 200% in 10% increments. Percent strain is defined as 100 times the distance of the shearing motion divided by the space between the cone and plate of the viscometer. The second strain value, 20% strain, was used for the comparisons between samples and treatments, being the lowest possible strain for accurate measurement. Instrument start-up frequently compromises the first data point and higher strains can damage network structures (Ferry, J Viscoelastic Properties of Polymers. 3rd ed. John Wiley and Sons, Inc. New York pg. 245-[1980]) resulting in artifacts and irreproducible data.

[2] = catalytic amounts of rhDNase (Shak et al.); cited from earlier work
[3] = tested on: purulent CF sputum; assay: Compaction assay of CF sputum treated in vitro with rhDNase; assay type: biochemical, human
Description: Approximately 100 μL of sputum was transferred into a tared Eppendorf microcentrifuge tube with a positive displacement pipet (Gilson Microman®, equipped with a stainless steel shaft and plastic plunger). Either rhDNase or control diluent was added as volume equaling 50% of the exact sputum sample weight. Eppendorf tubes were vigorously vortexed for 15 seconds and then incubated for 15 minutes at ambient temperature. Aliquants of the treated sputum were loaded into Kimax-51, 1.5−1.8×90 mm melting point capillary tubes (Kimble Products) using 50 μL Drummond glass capillary tube (Microcaps). The loaded tubes were centrifuged for 20 minutes at 12,000 rpm in a Biofuge A microcentrifuge (Heraeus Sepatech GmbH) equipped with a horizontal, hematocrit-type rotor head (Heraeus Sepatech) and the supernatant/pellet interface subsequently inspected for resolution. On occasion some samples required up to 20 additional minutes to resolve the supernatant-pellet interface clearly. In these cases, all samples loaded on the rotor were centrifuged for the greater duration. The total height of the material loaded into the capillary tubes and the pellet height were measured in millimeters. The percent pellet was calculated as the height of the pellet divided by the height of the total material loaded, multiplied by 100.

[4] = rhDNase concentration in sputum after inhalation; assay type: in vivo, human; settings: inhalation of 10 mg rhDNase; sputum collected one hour after inhalation
[5] = tested on: DNA in sputum samples; assay: Total DNA in pellet and supernatant fractions after compaction (DABA assay); assay type: biochemical, human; settings: all six samples, FIG. 6
Description: Sputum sample DNA content was determined by a modification of the diaminobenzoic acid (DABA) assay developed by Kissane and Robins (J Biol Chem 233: 184–188 (1958]) which quantitates total DNA concentration independent of length. Previously frozen sputum aliquants were diluted tenfold with the assay diluent (25 mM HEPES, 1 mg/ml bovine serum albumin, 4 mM CaCl^2, 4 mM MgCl^2, 0.05% polysorbate 20, and 0.01% thimerasol, at pH 7.5) and incubated at 60° C. for one hour. Diluted specimens (50 μL) were pipeted into microtiter plate wells and 50 μL of a 20% 3,5-diaminobenzoic acid hydrochloride (DABA) solution was added after which the plates were tightly sealed. […] A Cytofluor (Millipore Corp.) microtiter plate flurometer (with 390 nm excitation and 530 nm emission filters) was used to read the plates. […] The coefficient of variation for the assay was determined to be <6%.
Approximately 100 μL of sputum was transferred into a tared Eppendorf microcentrifuge tube with a positive displacement pipet (Gilson Microman®, equipped with a stainless steel shaft and plastic plunger). […] The total height of the material loaded into the capillary tubes and the pellet height were measured in millimeters. The percent pellet was calculated as the height of the pellet divided by the height of the total material loaded, multiplied by 100.

[6] = tested on: DNA in sputum samples; assay: Agarose gel electrophoresis of DNA length in sputum samples; assay type: biochemical, human; set-up: dose or concentration left out as unconfirmed; settings: all six sputum samples; rhDNase, 20 minutes at 25° C.
Description: The length of the DNA in sputum samples was determined qualitatively by agarose gel electrophoresis as described by Shak et al., Supra. The effect of freezing on sputum DNA length was studied by electrophoresing samples with and without one cycle of freezing at −70° C. Samples were diluted four-fold in a buffer containing 100 mM NaCl, 5 mM EDTA, 0.5% SDS, 100 μg/ml proteinase K (Sigma), 50 mM Tris, pH 8.0, and incubated for three hours at 37° C. with occasional mixing. Samples were then electrophoresed in 0.5% agarose gels and stained with ethidium bromide by standard procedures (Sambrook, et al., Molecular Cloning: A Laboratory Manual, 2nd ed. Cold Spring Harbor Laboratory Press [1989]). A 1 Kb DNA ladder having 12 major bands between 500 bp to 12 Kb (Gibco/BRL 5615SA) was used as the molecular weight standard.

[7] = 1 and 4 mg/mL rhDNase solutions, aerosolized (Aitken et al., Hubbard et al.); cited from earlier work

B1: rhDNase: recombinant human DNase I cloned and expressed at Genentech; used as 4 mg/ml solution in 1 mM CaCl2, 150 mM NaCl, pH 7.4 (protein, UniProt P24855 23-282, looked up)
Deoxyribonuclease-1: LKIAAFNIQTFGETKMSNATLVSYIVQILSRYDIALVQEVRDSHLTAVGKLLDNLNQDAPDTYHYVVSEPLGRNSYKERYLFVYRPDQVSAVDSYYYDDGCEPCGNDTFNREPAIVRFFSRFTEVREFAIVPLHAAPGDAVAEIDALYDVYLDVQEKWGLEDVMLMGDFNAGCSYVRPSQWSSIRLWTSPTFQWLIPDSADTTATPTHCAYDRIVVAGMLLRGAVVPDSALPFNFQAAYGLSDQLAQAISDHYPVEVMLK
effect on elasticity modulus [1]: more greatly affected
effect on viscosity modulus [1]: reduced measured values of viscosity
viscosity of purulent cystic fibrosis sputum [2]: greatly reduced the viscosity
concentration above which rhDNase is maximally effective (fit of dose-response curve) ([3]; CF sputum sample, FIG. 7): above 1 μg/ml
concentration below which rhDNase is minimally effective (fit of dose-response curve) ([3]; CF sputum sample, FIG. 7): below 0.1 μg/ml
minimum in vitro rhDNase concentration showing activity in the compaction assay ([3]; in vitro, sputum): 1 μg rhDNase/mL sputum
concentrations of rhDNase in sputum [4]: 1000 to 20000 ng/mL
distribution of total DNA between pellet and supernatant following compaction [5]: redistribution of total DNA from the pellet to the supernatant
DNA size after hydrolysis (complete hydrolysis) [6]: less than 500 base pairs
pulmonary function in CF patients [7]: increased pulmonary function; also recorded: improved lung function
